Data from patent publication US20160040149A1, “Compositions Having Dicamba Decarboxylase Activity and Methods of Use” (priority 2013, published 2016).

Test: Saturation mutagenesis of SEQ ID NO:109: dicamba decarboxylation activity of point mutants (CO2 released), fold of backbone (Tables 7, 8, Megatable 1)
Settings: decarboxylation activity (CO2 released) of point mutant vs unmutated backbone protein; backbone SEQ ID NO: 109

| Molecule | Fold Activity |
| --- | --- |
| 77 (protein, Burkholderia xenovorans) MALIDLHAHAPHPGYYNQHPHWGPFFERHEDGDVKLRVGDWILTLGSPERKALVRAGKGPTVEEYQARWADPKVRLAGMDAAGQNAQVVSVPSHCYMYWAEKEFSVPFATKVNDTFAEYCSAAPDRLMFWAHAALNAPEQAALELRRACTELGAKGLVAGGANFGGLEFDSPELDPVWKVLCDLDLPMFIHGYNQSVTWGKKANDDRYETTAIVGMQYDETRCFWNLVCGGVLDRFPGLKVYITHGGGYVPYQLGRLAQCNGNLDVAHNKKPVLEYLKNNFYFDVELHEVPMRQALIDIIGADRVLYGSNFGGSDAVRHDLTEGLRLSDDDLQKIRWKNACKLLHLDPAKIGEPAKKQAVSA | 1.3 fold |
| 83 (protein, listed as Mycobacterium rhodesiae) MALIALEEHYAWSPVSAGNVVGSWLETHNVTAYQRLYDRGPLRLEQMDAAGIDFQILSLFDPGVQDDDDTARAVENARRANDDLAETVRAAPDRFGGFATLAPQDPDAAAAELERAVGELGLVGGLINGHTHGRYLDDPAYLGLFECAQRLGVPIYLHPTTPHPAVMDAWFAPYVKDGLHLASWGFAAETGTHALRLIYSGLFDTFPRLQMILGHLGEMLPYAAYRIDRYYGLGGGDDGGRLARLPSEYLRDNFHVTTSGNFNPVAFACALDVMGPDRLMFSVDYPMDDNVTGAEFLRNLEVDDDVRRKVAGENALQLFGDKIPRR | 1.9 fold |
| 79 (protein, Pyrenophora teres) MATTTTPSTLIATLESHLTPTLAFTSPTTSPTQPALHLIPPTTLTKLRNLGPGRVKDMHMLGHSRQIISHIPVAAPPQICSRFNDAIHAATMTNTAKFSVLAVLPTDGMEAAKELARCVSKYRFVGGVIGLNRGLRINGEGWEELWGLAERLRIPIMFREMWPLAFEIVDYQHHLPYSALGPILTQLHTSHTSSPLPLVRLYLSSVFDHYPSLRLVLAHPGSLPSLVPRIESLINSIPATDKPKRSFLDVWQHNIYLTTADAQDMSSLRALLEQIPVDRVLYASNYPFEERGNELMNELRESEFLTNIEWERVAWVNAETLFNLKEAGTKEARQLTTIPSSRS | 0.9 fold |
| 81 (protein, listed as Verticillium dahliae) MAASTKPKVVDIHTHMYPPSYIDILTSRTAIPVVRTFPQAADPRLILLDAEQQALDAALQDPTAKPPGRPLTSHYASLDQKIHFMDTHSIDISVVSLANPWLDFIEPKEAAATARSVNDEFEAMCASQPGRLFFFAALPLTAPLPALLEAVRHVAELEHCRGVILGTSGLGSGLDDPELVPVLEAVAAAALTVFLHPHYGLPNDVWGPRASAEYGHVLPLALGFPMETTIAVARMYLAGVFDRVPALRMLLAHSGGTLPFLAGRIESCILHDGQLVAEGKVGAARRTIWDVLREQVYLDAVIYSEIGLKAAIAASGGADRLMFGTDHPFFPPLGTDEQAKKESRINAGGSRPMITGNAMINGHGGLCNHITQSDYQDVVL | 1.2 fold |
| 3 (protein, listed as Lactobacillus plantarum) MAKLITVEEHFESAAVTAAMRQAVGNAVLPAVSPALRQYMRDNLPSPAIMQDTQHERLAFMAQYGIDMQVLSYGNSSPQNLSPEQAVPLSQLANDELAKAVVAHPDRYAGLAVLPVGDPQAAVAELNRAVTTLGLRGVLLKGNYQNKFFDEPFFLPIFEAAAALDVPVYFHPSFIPQAVTSHYFESNQWSDVVTGILSSAGYGWHMDVGIQVIRMIASGIFDKLPGLKLISGHWGELVPLFLERLDDELTTYTDLQYPFSTYYRHNVYVTPSGILSAPQLQFMLAEMGADHLMYSIDYPYKQPETSGSFLDIADLTDEQRAQIAFGTATTLFKL | 0.9 fold |
| 86 (protein, listed as Sphingopyxis alaskensis) MALGASVASREASAQMAKAPMRKIATEEAFATPELAKAWLEIARSEPNSSLDIPTGILSIFDNPRPGSNQDRFRRQLLDVDAERIRDMDEAGVDMQLLSVTIPGVQIFEPARAGELAVTTNDHLAAAIARRPTRFAGLACFAPHDPVQATREMERAVNALGLKGFIVNSHTQDLYLDDPRFAPVLEAAQSLDCPIYLHPRAPSNGMAAPFRDYSMGGSIWGFGVEAGTHAVRMILSGVFDRYPRLRIVLGHMGEALPFWMWRLDHMAARRAKDGRMKPLSLAPSEYFKRNFAVTTSGFESPDVLDLVIKVAGIENIMWAIDYPYESSRDAVTFIEGADLTASQRASIFHRNAVRHFRLS | 1.4 fold |
| 80 (protein, listed as Cordyceps militaris) MAAASTPVVVDIHTHMYPPSYIAMLEKRQTIPLVRTFPQADEPRLILLSSELAALDAALADPAAKLPGRPLSTHFASLAQKMHFMDTNGIRVSVISLANPWFDFLAPDEAPGIADAVNAEFSDMCAQHVGRLFFFAALPLSAPVDAVKASIERVKNLKYCRGIILGTSGLGKGLDDPHLLPVFEAVADAKLLVFLHPHYGLPNEVYGPRSEEYGHVLPLALGFPMETTIAVARMYMAGVFDHVRNLQMLLAHSGGTLPFLAGRIESCIVHDGHLVKTGKVPKDRRTIWTVLKEQIYLDAVIYSEVGLQAAIASSGADRLMFGTDHPFFPPIEEDVQGPWDSSRLNAQAVIKAVGEGSSDAAAVMGLNAVRVLSLKAE | 0.8 fold |
| 4 (protein, listed as Lactobacillus buchneri) MAKVITLEEHFSSQKLGQKMAEVLPKRPIGNVSPKMQDYMQRSLPPEAELEDVTGSRIQWMDQHQISMQILSYGNQNPQNSDPKFAVELTKLANDELAKAVAKAPDRFRAFASLPVSHPTDAAAELKRGVEELGFKGAMLVRPTSQAHPFFDDPFYLPIFEAAANLNVPVYLHPSFPDSQIIDYYYSNGPWDDKVSGILGTAGYGWHTDVGIQTVRLLLSGVFEKYPNLKLISGHWGEFASFALERMDQVMYPETNLSEPISKIYRDHVYVTPSGILTEPQLKFVKDEVGIEHLLYSIDYPYIKPENSGSFIESSPLTDEEKELFAHGNAEKLLQL | 1 fold |
| 85 (protein, listed as Maritimibacter alkaliphilus) MAADRKPGLVSVEEGFMIPEVVAELSRIAGGVPSMKSGPIAGPFMDDLLDIGKGRVARMDADGVAVQILALAAPGVQKFDPDTALALSRLTNDRLAEAIAAHPARFGGLAAAPPQAAREGAKELDRAITTLGLNGLIVNSHTNDLYLDDPSFWPLLEAAEALDVPVYLHPREPAAGIEGGLMAMTGFTVGWAYAVETGTHLLRMIAAGVFDRFPRLRIVLGHLGEMIPFMLDRIDNRYPFEMGVTGAKPLPRKPSDYFRDHVTVATSGMNFNAPMRAAIEVLGADKVMFAADYPMERQDEEVAKFAALDLTPDERKRIGEDNARRVFGL | 1.4 fold |
| 88 (protein, listed as Starkeya novella) MARKIALEEHFTTPELAGKYVARPTQSDALFADIERRLADFDELRLEMMDRAEIDLMVLSVTTPGVQGVRDTGEAIRLARGANDFLAREVQKRPSRYAGFAHLAMQDAEAAATELERAVRELGFRGALINGQTNGHYLDEDQYAPFWERVQELDVPVYLHPGNMADSPAMFAHRPELGGPIWAWTAETAAHALRLVFGGTFTRFPGAKVILGHMGETLPFLLWRLDSRREFDLGEKLAPDALPSAIIKRNIAVTTSGVCDPAPLVAALQALSDDNVMFSVDYPYEDPQLASKFIETAPIGEETRAKVCHGNAERLLGL | 1.3 fold |
| 87 (protein, listed as Novosphingobium sp.) MASDIATAADLQTGGRQGYLRIATEEAFATRDQIDVYLRMVRDGTADRGMTSLWGFYAQSPSARATQIIERLLDLGEQRLADMDAAGIDKAVLALTSPGVQPLLDMEEARRIAGNANDRLAERCAAHPDRFIGMTAVAPQDPQWSAREILRGATQLGFKGVQINSHTQGRYLDEPFFDPIFRALGDVGQPLYIHPGTPPDSMIGPLLDAGLDGAIYGFGVETGMHLLRLITAGIFDRYPDLQIMVGHMGEALPYWLYRLDYMHQAGIRSQRYERMRPLKRTIAGYFRSNVLVTCSGMAWEPAIQFARQVMGEDRVMYAMDYPYQYEADEVRALDVMDLSPESKRKFFQTNAERWFDL | 1.4 fold |
| 84 (protein, listed as Mycobacterium rhodesiae) MASLIALEEHYAWDPASEGNVVATWLRANNGVAYDRLYDRGPLRIEQMDAAGIDFQILSLFDPGVQDEVDAVRAVDLARRANDDLAESVRANPSRFGGFATLATQQPDAAVAEFDRAVTELGLVGGLINGHCQGRYLDDPAYEALFSRAEALGAPIYLHPTTPHPAVMDAWFAPYVGDGLHLASWGFAAETGTHVLRLIYSGLFDKFPRLQMIIGHLGEMLPFAAYRIDRYYGLGGGGTGHTLQHLPSDYLRNNFHVTTSGNFCSPALDCTLDVMGADRVMFSVDYPMDDNQTGADFLASYPMDDTNRRKVASENALRLFGDRIPAALRN | 1 fold |
| 76 (protein, listed as Polymorphum gilvum) MAKKIDIFNHIWPEPFFKALIAHIGEMTDITMRSGAVPMMTNLDRRFEVMDMFGPDYMQVLSLASPPLEKLADPAKALELSRIGSDSLAELCQRYPERFPAFIGTAPLSNPAAVVGECRRAIEDLGAAGMQIFTNVAGKPLDLAEFEPFFEYMASAGKPVWLHPARGEAFADYQTEKRSEYEIWWTFGWPYETSAAMARLVFSRMFDKYPGLKVITHHAGGMVPFFEGRVGPGWDQMGARTTDRDLAAVRKALKRPHLDYFKEFYADTASFGSRKAIEHAIEFFGEDRVLFASDAPFDPEGGPMYIRETMRCIDSLDLTDAQRRKIYHGNATALLGLSL | 1.1 fold |
| 82 (protein, listed as Rhodopseudomonas palustris) MAQNETPVIAIEEHYWDPEMVARFPAGENASPFSTLLTELGDVRLRAMDEAGIDVQVLSHGAPAAQKLPPDVAPELTRRVNDRLAEACARFPNRFAAFAALPTPAPEAAARELERCVRDLGFKGAMIHGLTNGLFIDDKRFWPIFEVAEKLDVPIYLHPSVPHADVTRYYYDDYAREFPTVIRPAWGFTVETATQAIRLILSRALESYPRLQIILGHLGETLPFLLWRINQALARPGQTPLDFRKQFCDHFHVTTSGFFSTPALICTMLELGIDRIMFAVDYPYVVNRDGTDWVQQLQISPDDKRKLVGGNARRLLKL | 0.9 fold |
| 78 (protein, listed as Marinobacter adhaerens) MALIDLHAHAPHPDYYDQHPHWGPAFELQSDGDIKLRVGHWVLSLGAPERKQALREAHARGETLDVQEYMAKWRDPEHRLASMDAAGQNAQVLSVPSHCYMYWAEPEFGVPFAKKVNDSLAEYCSAAPDRLMFWAHAPLNVPKEAAKEIRRACTELGAKGLVAGGSNFGGLEFDSPEMDPVWEALCDLDLPMFVHGYNQSVTWGEEANTDRYETTAIVGMNYDESKCFWYMINGGVFDRFPNLKVYITHGGGFVPYQLGRMAQTNPNLDTYHNKKPFLEYLKNFYFDVELHEVPMRQAMVEVIGADRVLYGSNFGGSDAVRHDLTDDLKLSQEDLDKIRWKNACDLLHLDPNKLGKVRG | 1.1 fold |
